{"source": "IntAct's records for PubMed 22396535", "parents": {"B1": {"name": "Paired immunoglobulin-like type 2 receptor alpha (Homo sapiens), Q9UKJ1 (parent)", "chain": "MGRPLLLPLLPLLLPPAFLQPSGSTGSGPSYLYGVTQPKHLSASMGGSVEIPFSFYYPWELATAPDVRISWRRGHFHRQSFYSTRPPSIHKDYVNRLFLNWTEGQKSGFLRISNLQKQDQSVYFCRVELDTRSSGRQQWQSIEGTKLSITQAVTTTTQRPSSMTTTWRLSSTTTTTGLRVTQGKRRSDSWHISLETAVGVAVAVTVLGIMILGLICLLRWRRRKGQQRTKATTPAREPFQNTEEPYENIRNEGQNTDPKLNPKDDGIVYASLALSSSTSPRAPPSHRPLKSPQNETLYSVLKA", "partner": "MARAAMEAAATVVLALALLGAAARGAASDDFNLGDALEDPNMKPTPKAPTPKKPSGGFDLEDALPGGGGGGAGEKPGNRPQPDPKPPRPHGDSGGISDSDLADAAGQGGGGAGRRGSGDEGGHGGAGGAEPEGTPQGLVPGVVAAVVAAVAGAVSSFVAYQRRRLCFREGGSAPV"}, "B2": {"name": "Paired immunoglobulin-like type 2 receptor alpha (Homo sapiens), Q9UKJ1 (parent)", "chain": "B1 chain", "partner": "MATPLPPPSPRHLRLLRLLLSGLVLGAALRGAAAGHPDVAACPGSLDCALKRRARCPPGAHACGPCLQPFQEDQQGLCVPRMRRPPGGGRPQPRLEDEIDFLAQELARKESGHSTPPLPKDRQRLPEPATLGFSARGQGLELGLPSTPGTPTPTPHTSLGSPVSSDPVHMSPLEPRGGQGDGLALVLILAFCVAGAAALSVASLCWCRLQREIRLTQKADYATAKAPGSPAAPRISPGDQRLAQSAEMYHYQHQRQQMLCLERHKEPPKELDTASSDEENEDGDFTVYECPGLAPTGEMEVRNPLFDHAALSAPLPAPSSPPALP"}, "B3": {"name": "Paired immunoglobulin-like type 2 receptor alpha (Homo sapiens), Q9UKJ1 (parent)", "chain": "B1 chain"}}, "data": [{"variants_of": "B1", "details": "with cd99_mouse Cd99, Q8VCN6", "values": [{"variant": "R126A", "effect of a mutation on the interaction": "disrupting interaction strength"}]}, {"variants_of": "B2", "details": "with npdc1_human NPDC1, Q9NQX5", "values": [{"variant": "R126A", "effect of a mutation on the interaction": "disrupting interaction strength"}]}, {"variants_of": "B3", "details": "with col12_human COLEC12, Q5KU26", "values": [{"variant": "R126A", "effect of a mutation on the interaction": "disrupting interaction strength"}]}]}
